Assay: yeast display, Sf9 membrane polyspecificity reagent, FACS + sequencing; frameworks hold sequencing errors
Outline: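 A synthetic nanobody library was expressed on Saccharomyces cerevisiae BJ5465 by galactose induction for 36–48 hours. The library was stained for 1 hour at 4 °C with 10% biotinylated, detergent-solubilized Sf9 membrane reagent and enriched with streptavidin microbeads before FACS. Low and high (top ~1%) gates were set on anti-HA fluorescence for expression and streptavidin fluorescence for reagent binding, and each polyreactivity label reflects the gate of origin.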

Q: For “QVQLVESGGGLVKAGGSLRLSCAASGIIFDYYAMGWYRQAPGKERELVAAISWDGGRTYYADSVKGRFTISRDNAKNTVYLQMNSLKPEDTAVYYCNKDYWYGYSDFDYWGQGTQVTVSS”, which “polyreactivity (PSR sort gate)” value is on record?
A: The value was “low polyreactivity”.

Q: For “QVQLVESGGGLVQAGGSLRLSCAASGSTFWIYAMGWYRQAPGKERELVAAITLRSGSTYYADSVKGRFTISRDNAKNTVYLQMYSLKPEDTAVYYCATDSWGVDRPNYNYWGQGTQVTVSS”, which “polyreactivity (PSR sort gate)” value is on record?
A: The value was “low polyreactivity”.

Q: With “QVQLVESGGGLVQAGGSLRLSCAASGRIFTRYVMGWSRQAPGKERELVAAISYRGGRTYYADSVKGRFTISRDNAKNTVYLQMNSLKPEDTAVYYCAVDYTLADVIYDYWGQGTQVTVSS” as the sequence, how does the “polyreactivity (PSR sort gate)” value read?
A: The value was “high polyreactivity”.

Q: With “QVQHVESVGGLVQAGGSLRLSCAASGSIFEYNAMGWYRQAPGKERELVAAISWSSGTTYYADSVKGRFTISRDNAKNTVYLQMNSLKPEDTAVYYCNAGRYGKDSDYWGQGTQVTVSS” as the sequence, how does the “polyreactivity (PSR sort gate)” value read?
A: Its value is “low polyreactivity”.

Q: Which “polyreactivity (PSR sort gate)” value does the source give for “QVQLVESGGGLVQAGGSLRLSCAASGFIFDVYAMGWYRQAPGNERELVATISSGDSTYYADSVKGRFTISRDNAKNTVYLQMNSLKPEDTAVYYCNTTEHKYVSSFEYGYWGQGTQVTVSS” here?
A: Its value is “low polyreactivity”.

Q: For “QVQLVESGGGIVQAGGSLSLSCAASGRSFRYYAMGWYRQAPGKEREMVAAIDTSSGSTYYADSVKGRFTISRDNAMNTVFLQMNSLKPEDTAVYYCNATWWIPLIYDYWGQGTHVTVSS”, which “polyreactivity (PSR sort gate)” value is on record?
A: Its value is “low polyreactivity”.

Q: Which “polyreactivity (PSR sort gate)” value does the source give for “QVQLVESGGGLVQAGGSLRLSCAASGIIVDFYAMGWYRQAPGKERELVAGISWGGGTTYYADSVKGRFTISRDNAKNTVYLQMNSLKPEDTAVYYCAAVAFQTRYYYWGQGTQVTVSS” here?
A: Its value is “high polyreactivity”.

Q: With “QVQLVESGGGLVQAGGSLRLSCAASGRIFYIYAMGWYRQEPGKERELVAAISRRAASTYYADSVKGRFTISRDNAKNTVYLQMNSLKPEDTAVYYCAADYYDRKVEYYYWGQGTQVTVSS” as the sequence, how does the “polyreactivity (PSR sort gate)” value read?
A: Its value is “high polyreactivity”.

Q: Which “polyreactivity (PSR sort gate)” value does the source give for “QVQLVESGGGLVQAGGSLRLSCAASGSTFAANAMGWYRQAPGKERELVAAITSSGGSTFYADSVKGRFTISRDNAKNTVYLQMNSLKPEDTAVYYCNKDIERYVRIYDSWGQGTQVTVSS” here?
A: Its value is “low polyreactivity”.

Q: Which “polyreactivity (PSR sort gate)” value does the source give for “QVQLVESGGGLVQAGGSLRLSCAASGFTFTHYAMGWYRQAPGKERELVAAITDTGGGTYYADSVKGRFTISRDTAKNTVYLQMNSLKPEDTAVYYCAKPTSYRGYYSWGQGTQVTVSS” here?
A: The value was “high polyreactivity”.

Q: With “QVQLVESGGGLVQAGGSLRLSCAASGYTFSDYAMGWYRQAPGKERELVAAISWSGGSTYYADSVKGRFTISRDNAKNTVFLQMNSLKPEDTAVYYCAAKWYAPDLLYYYWGQGTQVTVSS” as the sequence, how does the “polyreactivity (PSR sort gate)” value read?
A: Its value is “low polyreactivity”.

Q: For “QVQLVESGGGLVQAGGSLRLSCAASGSIFSSYAMGWYRQAPGKERELVATITSSGGSTYYADSVKGRFTISRDNAKNTVYLQMNSLKPEVTAVYYCAASYHTSYSLRSYYYWGQGTQVTVSS”, which “polyreactivity (PSR sort gate)” value is on record?
A: The value was “low polyreactivity”.

Q: Which “polyreactivity (PSR sort gate)” value does the source give for “QFQLEESRGGLVQAGGSLRLSCAASGRIFDLYAMGWYRQAPGKETELVATISGSGGSTYYADSVKGRFTISRDNAKNTVYLQMNSLKPEDTAVYYCAAVSVSSWYDYWGQGTQVTVSS” here?
A: The value was “low polyreactivity”.

Q: For “QVQLVDSGGGLVQAGGSLRLSCAASGRIFRGYAMGWYRQAPGKERELVAAITSGGITNYADSVKGRFTISRDNAKNTVYLQMNRLKPEDTAVYYCNTRRGWRDFDYWGQGTQVTVSS”, which “polyreactivity (PSR sort gate)” value is on record?
A: The value was “low polyreactivity”.

Q: With “QVQLVESGGGLVQAGGSLRLSCAASGRTFQRYAMGWYRQAPGKERELVAAISRGGITYYADSVKGRFTISRDNAKNTVYLQMNSLKPEDTAVYYCAALYRYYHESSPFDYWGQGTQVTVSS” as the sequence, how does the “polyreactivity (PSR sort gate)” value read?
A: The value was “high polyreactivity”.

Q: For “QVQLVESGGGLVQAGGSLRLSCSASGITYGGNEMGWYRQAPGTESELVAGIDDGGSTNYADSVKGRFTISRDNAKNTVYLQMNSLKPEDTAVYYCAVQGHPPLGILPGFLFDYWGQGTQVTVSS”, which “polyreactivity (PSR sort gate)” value is on record?
A: The value was “low polyreactivity”.

Q: Which “polyreactivity (PSR sort gate)” value does the source give for “QVQLVESGGGLVQAGGSLRLSCAASGRIFGGYAMGWYRQAPGKERELVAAISSSGGRTYYADSVKGRFTISRDNSKKTVYLQMNSLKPEDTAVYYCNAGAGQRVSGHSFEDWGQGTQVTVSS” here?
A: Its value is “high polyreactivity”.

Q: With “QVHLVESGGGLVQAGGSLRLSCAASGFTFVSYAMGWYRQAPGKESELVAAISWSSARTYYADSVKGRFTISRHNAKNTVYLQRNSLKPEDTAVYYCNAVRGFSSSRGGYNYWGQGTQVTVSS” as the sequence, how does the “polyreactivity (PSR sort gate)” value read?
A: The value was “high polyreactivity”.

Q: Which “polyreactivity (PSR sort gate)” value does the source give for “QVQLVESGGGLVQAGGSLRLSCAASGLILKNYAMGWYRQAPWKERELVAAITRSGGSTYYADSVKGRFTISRDNAKNTVYLQMNSLKPEDTAVYYCAARNPSGKGRYDYRGQGTQVTVSS” here?
A: Its value is “high polyreactivity”.

Q: Which “polyreactivity (PSR sort gate)” value does the source give for “QVQLVESGGGLVQAGGSLRLSCAASGGTFRRYTMGWYTQAPGKVRELVAAITTSGGSTYYADSVKGRFTISRDNAKNTVYLQMNSLKPEDTAVYYCAATRRYSGDYWGQGTQVTVSS” here?
A: The value was “high polyreactivity”.

Q: Which “polyreactivity (PSR sort gate)” value does the source give for “QVQLVESGGGLVQAGGSLRLSCAASGRTFVDYDMGWYRQAPGKERELVADINSGGSTYYADSVKGRFTISRDNAKNTVYLQMNRLKPEDTAVYYCAADDGWGYISSYDYEYWGQGTQVTVSS” here?
A: Its value is “high polyreactivity”.

Q: With “QVQLVESGGGLVQAGGSLRLSCAASGRTFGAYAMGWYRQAPGKERELVAAIDSGGITYYADSVKGRFTISRDNAKNTVYLQMNSLKPEDTAVYYCAADHRVVTFYEGDYWGQGTQVTVSS” as the sequence, how does the “polyreactivity (PSR sort gate)” value read?
A: The value was “low polyreactivity”.

Q: Which “polyreactivity (PSR sort gate)” value does the source give for “QVQLVESGGGLVQAGGSLRLSCPASGSICRYYAMGWYRQAPGKERELVAVITRGGSTYYADSVKGRFTISRDNAKNTVYLQMNSLKPEDTAVYYCAADYWPAGLDRGYWGQGTQVTLSS” here?
A: Its value is “low polyreactivity”.

Q: With “QVQLVESGGGLVQAGGSLRLSCAASGSTFWGYAMGWYRQAPGTERELVAAITRNGGGTYYADSVKGRFTISRDNAKNTVYLQMNSLKPEDTAVYYCAATRRAYYLYGGQKMDYWGQGTQVTVSS” as the sequence, how does the “polyreactivity (PSR sort gate)” value read?
A: The value was “high polyreactivity”.

Q: For “QVQLGESGGGLVQAGGSLRLRCAASGRIFNGYTMGWYRQAPGKERELVAAISRGGSTYYADSVKGRLTISRDNAKNTVYLLMNSLKPEDTAVYYCAASHRFGYEYWGHGTQVTVSS”, which “polyreactivity (PSR sort gate)” value is on record?
A: The value was “high polyreactivity”.

Q: With “QVQLVESGGGLVQPGGSLRLSCAASGRISSKYAMGWYRQAPGKERELVATISSRGGSTYYADSVKGRFTISRDNAKNTVYLQMNSLKPEDTAVYYCNRPTYLHSTSYSYDYWGQGTQVTVSS” as the sequence, how does the “polyreactivity (PSR sort gate)” value read?
A: Its value is “low polyreactivity”.

Q: Which “polyreactivity (PSR sort gate)” value does the source give for “QVQLVESGGGLVQAGGSLRLSCAASGSISGYYDMGWYRQAPGKEREFVAAISLSTTSTYYADSVKGRFTISRDNAKNTVYLQMNSLKPEDTAVYYCATDIVGPHFDYWGQGTQVTVSS” here?
A: The value was “low polyreactivity”.

Q: For “QVQLVESGGGLVQAGGSLRLSCAASGFIFGYYAMGWYRHAPGKERELVAAISYSGGSTYYADSVKGRFTISRDNAKNTVYLQMYSLKPEDTAVYYCAKYGQSNYDWGQGTQVTLSS”, which “polyreactivity (PSR sort gate)” value is on record?
A: The value was “high polyreactivity”.

Q: Which “polyreactivity (PSR sort gate)” value does the source give for “QVQLVESWGGLVQAGGSLRLSCAASGSNFYTYAMGWYRQAPGKERDFVAAITWSGGRTYYADSVKGRFTISRDNAKNSVYLQMNSLKPEDTAVYYCAATSWWATTGFDYWGQGTQVTVSS” here?
A: The value was “low polyreactivity”.

Q: Which “polyreactivity (PSR sort gate)” value does the source give for “QVQLVESVGDLVQAGGSLRLSCAASGRNFPVYAMGWYRQAPGKERELVAAITFRSGSTYYADSVKGRFTISRDNAKNTVYLQMNSLKPEDTAVYYCAADFSVQYVGYSAIEGYWGQGTQVTVSS” here?
A: Its value is “high polyreactivity”.

Q: For “QVQLVESGGGLVQAGGSLRLSCAASGSIFYSNAMGWYRQAPGKERELVATIRSGGTTYYADSVKGRFTISRDNAKNTVYLQMNSLKPEDTAVYYCANRYGVKYWGQGTQVTVSS”, which “polyreactivity (PSR sort gate)” value is on record?
A: Its value is “high polyreactivity”.

Q: Which “polyreactivity (PSR sort gate)” value does the source give for “QVHLVESGGGLVQAGGSLRLSCAASGRTFSRYAMGWYRQAPGKERELVATITRGGSTNYADSVKGRFTISRDNAKNTVYLQMNSLKPEDTAVYYCNAASFRYQGTLNHFYYWGQGTQVTVSS” here?
A: The value was “low polyreactivity”.
